In paper PMC4232355:

Target: recombinant integrin αvβ3 (UniProt P06756)
Experiment: ELISA; integrin competitive binding assay: wells coated with 0.05 µg/well recombinant integrin αvβ3; 5 nM biotinylated-GRGDS with or without various peptides (20 nM) or serially diluted cyclic-(GRGDSP), 3 hr at room temperature, binding buffer with 1 mM MnCl2; bound biotinylated-GRGDS detected with streptavidin-HRP polymer

inhibitory activity of 20 nM peptide, as the equal concentration of cyclic-(GRGDSP) [nM]	inhibitory activity of 20 nM peptide, percent of that of 20 nM cyclic-(GRGDSP) [%]	Binder
5.27	26.5	SDESDTNSESANESGSRGDA [C-opened RGD]
3.3	16.5	SRGDASYTSDESSDDDNDSDSH [N-opened RGD]
